Assay results reported in IntAct's records for PubMed 16979624.

Key:
home3_human HOMER3 = home3_human HOMER3 (UniProt Q9NSC5)
enah_human ENAH = enah_human ENAH (UniProt Q8N8S7)
Chain of UniProt Q8N8S7 (Q8N8S7 whole entry): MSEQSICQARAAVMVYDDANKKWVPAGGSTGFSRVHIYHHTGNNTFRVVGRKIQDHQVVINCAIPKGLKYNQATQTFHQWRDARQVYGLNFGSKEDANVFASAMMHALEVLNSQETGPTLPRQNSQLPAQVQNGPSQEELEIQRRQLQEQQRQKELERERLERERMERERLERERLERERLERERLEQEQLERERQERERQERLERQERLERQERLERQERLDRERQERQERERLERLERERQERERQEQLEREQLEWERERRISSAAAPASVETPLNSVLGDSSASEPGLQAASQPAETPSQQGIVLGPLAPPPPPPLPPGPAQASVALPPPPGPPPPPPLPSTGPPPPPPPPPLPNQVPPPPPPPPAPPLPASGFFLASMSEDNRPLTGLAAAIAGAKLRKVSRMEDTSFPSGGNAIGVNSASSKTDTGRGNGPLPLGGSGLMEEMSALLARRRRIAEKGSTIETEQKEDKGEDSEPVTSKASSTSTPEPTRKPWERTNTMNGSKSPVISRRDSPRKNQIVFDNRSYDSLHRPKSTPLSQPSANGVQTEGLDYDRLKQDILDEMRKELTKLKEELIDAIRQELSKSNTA

Chain of UniProt Q9NSC5 (Q9NSC5 whole entry): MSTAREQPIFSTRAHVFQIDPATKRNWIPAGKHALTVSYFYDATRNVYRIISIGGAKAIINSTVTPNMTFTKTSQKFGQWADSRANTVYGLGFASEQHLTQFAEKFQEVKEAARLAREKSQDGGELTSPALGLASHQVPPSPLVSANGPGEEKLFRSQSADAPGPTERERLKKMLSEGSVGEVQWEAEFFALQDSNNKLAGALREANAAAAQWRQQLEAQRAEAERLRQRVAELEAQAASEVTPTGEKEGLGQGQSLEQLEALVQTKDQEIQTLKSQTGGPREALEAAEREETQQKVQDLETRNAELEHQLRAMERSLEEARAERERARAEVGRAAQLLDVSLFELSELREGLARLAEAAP

effect of a mutation on the interaction (home3_human HOMER3): disrupting interaction
effect of a mutation on the interaction (enah_human ENAH): disrupting interaction
Substance: Protocadherin Fat 1 (Homo sapiens), Q14517 P4438D
